Assay results published in the RNAGym collection of RNA variant scans (doi:10.1093/molbev/msab373).

B1: Azoarcus group I ribozyme (parent)
chain: GUGCCUUGCGCCGGGAAACCACGCAAGGGAUGGUGUCAAAUUCGGCGAAACCUAAGCGCCCGCCCGGGCGUAUGGCAACGCCGAGCCAAGCUUCGGCGCCUGCGCCGAUGAAGGUGUAGAGACUAGACGGCACCCACCUAAGGCAAACGCUAUGGUGAAGGCAUAGUCCAGGGAGUGGCGAAAGUCACACAAACCGG

Variants of: B1
Experiment: reverse-splicing fitness (ratio to wild type); higher = more active; in vitro selection; Mg2+ level not given
How it was run: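 An in vitro group I ribozyme library with randomized positions was T7-transcribed and gel-purified. In triplicate, 10 pmol RNA in EPPS pH 7.5 was reacted with 50 pmoles of a 30-nt RNA substrate for 1 h at 37 °C across several added MgCl2 levels (1–48 mM), then stopped with EDTA. Products were reverse transcribed from a substrate-complementary primer, PCR-amplified and sequenced (HiSeq 4000). Fitness is a variant's read proportion after selection over that before, normalised to wild type.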

Variant	reverse-splicing fitness
A111G A120U A145U C150G U176A	0.0157
A111G A120U A145U C150G U176C	0.0298
A111G A145C C169U U176C	0.0591
A111G A145C C169U U176G	0.00859
A111G A145C C169U U176A	0.0432
A111G A120U C150A U176C	0.0464
A111G A120U C150A U176A	0.0485
A111G A120U C150A U176G	0.0203
A111G A120U A145U C150U C169A	0.00473
A111G A120U A145U C150U C169G	0.0547
A111G A120U A145U C150U C169U	0.0793
A111G A145C U176A	0.718
A111G A145C U176C	0.78
A111G A145C U176G	0.448
A111G A120U C169U U176A	0.0277
A111G A120U C169U U176C	0.0395
A111G A120U C169U U176G	0.00411
A111G A120U C150U C169A U176G	0.00227
A111G A120U C150U C169A U176A	0.00336
A111G A120U C150U C169A U176C	0.00257
A111G A120U C150A C169U U176A	0.0063

Variant	reverse-splicing fitness
A111G A120U C150A C169U U176G	0.00282
A111G A120U C150A C169U U176C	0.00598
A111G A120U C150A C169A U176A	0.00442
A111G A120U C150A C169A U176G	0.00195
A111G A120U C150A C169A U176C	0.00292
A111G A145C C150G C169G	0.018
A111G A145C C150G C169A	0.0117
A111G A145C C150G C169U	0.0255
A111G A145C C150A C169G U176A	0.02
A111G A145C C150A C169G U176G	0.00534
A111G A145C C150A C169G U176C	0.0114
A111G A120U A145U C150U U176C	0.279
A111G A120U A145U C150U U176G	0.0789
A111G A120U A145U C150U U176A	0.265
A111G A120U C169U	0.144
A111G A120U C169G	0.103
A111G A120U C169A	0.00619
A111G A120U A145U C150G C169U U176C	0.00372
A111G A120U A145U C150G C169U U176G	0.00216
A111G A120U A145U C150G C169U U176A	0.00269
A111G A120U A145U C169A	0.00636
